These results are taken from the supplement of paper PMC9112550, “Optimization of the antimicrobial peptide Bac7 by deep mutational scanning” (BMC Biology, 2022).

For this data set, the system named is Escherichia coli TOP10. Kind of data set: shrunken log2 fold change of peptide-encoding DNA abundance (4.5 h post-induction vs induction); higher = less antimicrobial activity (less host growth inhibition). The following applies: time post-induction: 4.5 h; library: site-saturation at positions 5, 18, 19, 20.
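Also: peptides expressed intracellularly from a pBAD plasmid library in pooled LB shake-flask culture, induced with 0.3% L-arabinose, DNA abundance read by NGS, three biological replicates, DESeq2 with apeglm shrinkage.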

RRIRFRPPRLPRPRPRPADCPRP: the “shrunken log2 fold change” value was -0.282.

For the sequence RRIRGRPPRLPRPRPRPIIWPRP, the “shrunken log2 fold change” value amounted to 0.392. The value for RRIRFRPPRLPRPRPRPPGGPRP was 0.782; that for RRIRSRPPRLPRPRPRPEGRPRP was -0.0898; that for RRIRGRPPRLPRPRPRPWHHPRP was -0.26.

Regarding RRIRNRPPRLPRPRPRPFHRPRP, the “shrunken log2 fold change” value was -0.211.

For RRIRRRPPRLPRPRPRPQNVPRP, the “shrunken log2 fold change” value stood at 0.0718. The value for RRIRKRPPRLPRPRPRPELWPRP was 1.42. The value for RRIRVRPPRLPRPRPRPEQVPRP was 0.0835; that for RRIRVRPPRLPRPRPRPCHWPRP was 0.169; that for RRIRLRPPRLPRPRPRPDVEPRP was -0.0825. The value for RRIRLRPPRLPRPRPRPWHIPRP was 0.0292; that for RRIRYRPPRLPRPRPRPSYHPRP was -1.21. As for RRIRLRPPRLPRPRPRPFGQPRP, the “shrunken log2 fold change” value was -0.11. As for RRIRARPPRLPRPRPRPIPDPRP, the figure is 0.604. In the case of RRIRGRPPRLPRPRPRPPKQPRP, the “shrunken log2 fold change” value came out at 0.292.

With RRIRQRPPRLPRPRPRPKHLPRP, the “shrunken log2 fold change” value came out at 0.0736. The value for RRIRDRPPRLPRPRPRPDTMPRP was 0.373; that for RRIRDRPPRLPRPRPRPATHPRP was 0.335.

RRIRKRPPRLPRPRPRPDICPRP: the “shrunken log2 fold change” value stood at 0.0913. The value for RRIRSRPPRLPRPRPRPTAVPRP was 0.466; that for RRIRFRPPRLPRPRPRPGSRPRP was 0.191. As for RRIRYRPPRLPRPRPRPSENPRP, the figure is -0.235.

Consider RRIRLRPPRLPRPRPRPMGRPRP, for which the “shrunken log2 fold change” value was determined as 0.0605.

Regarding RRIRTRPPRLPRPRPRPQGTPRP, the “shrunken log2 fold change” value was 0.0402. Turning to RRIRYRPPRLPRPRPRPHARPRP, the “shrunken log2 fold change” value is -0.163. Regarding RRIRGRPPRLPRPRPRPMTGPRP, the “shrunken log2 fold change” value was determined as 0.427. The value for RRIRVRPPRLPRPRPRPDMHPRP was -0.107; that for RRIRGRPPRLPRPRPRPWINPRP was -0.137. The value for RRIRDRPPRLPRPRPRPRWDPRP was 0.196; that for RRIRDRPPRLPRPRPRPEFRPRP was 0.283.

For RRIRNRPPRLPRPRPRPLVVPRP, the “shrunken log2 fold change” value is -0.117. On to RRIRQRPPRLPRPRPRPYTFPRP, for which the “shrunken log2 fold change” value is -0.0307. The value for RRIRKRPPRLPRPRPRPRQTPRP was 0.0644; that for RRIRMRPPRLPRPRPRPQPVPRP was 0.622.

RRIRNRPPRLPRPRPRPMSHPRP: the “shrunken log2 fold change” value is -0.249.

On to RRIRGRPPRLPRPRPRPKAYPRP, for which the “shrunken log2 fold change” value was 0.12.

Turning to RRIRWRPPRLPRPRPRPAWAPRP, the “shrunken log2 fold change” value is 0.579.

For RRIRERPPRLPRPRPRPHMRPRP, the “shrunken log2 fold change” value came to 0.0528. The value for RRIRCRPPRLPRPRPRPWIFPRP was -0.159; that for RRIRNRPPRLPRPRPRPASEPRP was -0.0216. As for RRIRQRPPRLPRPRPRPICTPRP, the “shrunken log2 fold change” value is -0.0531. As for RRIRLRPPRLPRPRPRPLYSPRP, the figure is -1.1; as for RRIRNRPPRLPRPRPRPAFTPRP, -0.176. In the case of RRIRQRPPRLPRPRPRPCKYPRP, the “shrunken log2 fold change” value was -0.0164. Consider RRIRDRPPRLPRPRPRPLMVPRP, for which the “shrunken log2 fold change” value was -0.186. The value for RRIRRRPPRLPRPRPRPVLVPRP was 0.487; that for RRIRKRPPRLPRPRPRPYIYPRP was -0.0483; that for RRIRHRPPRLPRPRPRPDTLPRP was 0.00779. For RRIRMRPPRLPRPRPRPYAWPRP, the “shrunken log2 fold change” value was -0.107. As to RRIRIRPPRLPRPRPRPVHNPRP, the “shrunken log2 fold change” value was -0.357.

In the case of RRIRIRPPRLPRPRPRPTHCPRP, the “shrunken log2 fold change” value was -0.00414. The value for RRIRSRPPRLPRPRPRPRTWPRP was 0.0747; that for RRIRYRPPRLPRPRPRPLCTPRP was -0.759; that for RRIRIRPPRLPRPRPRPWTMPRP was -0.163. As for RRIRSRPPRLPRPRPRPVWHPRP, the figure is 0.182. Regarding RRIRWRPPRLPRPRPRPEFDPRP, the “shrunken log2 fold change” value came out at 0.198. As for RRIRMRPPRLPRPRPRPPKQPRP, the figure is 0.742. The value for RRIRGRPPRLPRPRPRPVLRPRP was 0.656; that for RRIRTRPPRLPRPRPRPEASPRP was 0.00709. The value for RRIRQRPPRLPRPRPRPFCLPRP was -0.336; that for RRIRIRPPRLPRPRPRPFQYPRP was -0.0506; that for RRIRGRPPRLPRPRPRPPMKPRP was 0.138.

With RRIRWRPPRLPRPRPRPFYQPRP, the “shrunken log2 fold change” value is -0.0811. As to RRIRDRPPRLPRPRPRPMNVPRP, the “shrunken log2 fold change” value was 0.0651. The value for RRIRQRPPRLPRPRPRPLQEPRP was -0.129. For RRIRPRPPRLPRPRPRPGDDPRP, the “shrunken log2 fold change” value was -0.292.

Regarding RRIRCRPPRLPRPRPRPIKFPRP, the “shrunken log2 fold change” value was -0.159. The value for RRIRKRPPRLPRPRPRPSCDPRP was 0.141.

With RRIRCRPPRLPRPRPRPTIMPRP, the “shrunken log2 fold change” value is -0.562. Consider RRIRKRPPRLPRPRPRPATQPRP, for which the “shrunken log2 fold change” value is 0.958. RRIRMRPPRLPRPRPRPAQTPRP: the “shrunken log2 fold change” value is 0.00383. As to RRIRTRPPRLPRPRPRPRGLPRP, the “shrunken log2 fold change” value was determined as 0.62. Consider RRIRERPPRLPRPRPRPSLSPRP, for which the “shrunken log2 fold change” value is -0.573.

Turning to RRIRQRPPRLPRPRPRPKYSPRP, the “shrunken log2 fold change” value is -0.0125. As to RRIRPRPPRLPRPRPRPILHPRP, the “shrunken log2 fold change” value is -0.277. As to RRIRKRPPRLPRPRPRPLMDPRP, the “shrunken log2 fold change” value turned out to be 0.16. As for RRIRIRPPRLPRPRPRPFQSPRP, the figure is -0.469; as for RRIRFRPPRLPRPRPRPQYAPRP, -0.862; as for RRIRNRPPRLPRPRPRPGCYPRP, -0.24. As for RRIRMRPPRLPRPRPRPSMCPRP, the “shrunken log2 fold change” value stood at 0.0724. As for RRIRKRPPRLPRPRPRPWVSPRP, the “shrunken log2 fold change” value worked out at 0.345.

With RRIRMRPPRLPRPRPRPCYQPRP, the “shrunken log2 fold change” value worked out at 2.31.

For the sequence RRIRKRPPRLPRPRPRPGYMPRP, the “shrunken log2 fold change” value was -0.144. The value for RRIRDRPPRLPRPRPRPCNKPRP was -0.764; that for RRIRPRPPRLPRPRPRPDDGPRP was -0.21; that for RRIRVRPPRLPRPRPRPQVEPRP was -0.272. The value for RRIRMRPPRLPRPRPRPWEEPRP was 0.317. As for RRIRARPPRLPRPRPRPRTRPRP, the figure is 1.05. RRIRYRPPRLPRPRPRPIFDPRP: the “shrunken log2 fold change” value is -0.737. RRIRFRPPRLPRPRPRPFTYPRP: the “shrunken log2 fold change” value is -0.208. The value for RRIRCRPPRLPRPRPRPHTWPRP was -0.216. Take RRIRRRPPRLPRPRPRPIDQPRP: the “shrunken log2 fold change” value came to 0.696.

Turning to RRIRERPPRLPRPRPRPQYRPRP, the “shrunken log2 fold change” value was -0.612. The value for RRIRLRPPRLPRPRPRPFFYPRP was -0.343; that for RRIRCRPPRLPRPRPRPLWEPRP was 0.00378. As to RRIRTRPPRLPRPRPRPTEGPRP, the “shrunken log2 fold change” value turned out to be 0.1. As for RRIRMRPPRLPRPRPRPNHTPRP, the “shrunken log2 fold change” value is -0.213. Take RRIRQRPPRLPRPRPRPNCAPRP: the “shrunken log2 fold change” value worked out at 0.00462. The value for RRIRHRPPRLPRPRPRPCTRPRP was 0.0237.

RRIRMRPPRLPRPRPRPDCVPRP: the “shrunken log2 fold change” value came to 1.71. With RRIRKRPPRLPRPRPRPEQKPRP, the “shrunken log2 fold change” value was found to be 0.125. Regarding RRIRTRPPRLPRPRPRPCNHPRP, the “shrunken log2 fold change” value is -0.214. In the case of RRIRTRPPRLPRPRPRPERQPRP, the “shrunken log2 fold change” value is -0.0252.

Regarding RRIRFRPPRLPRPRPRPVVNPRP, the “shrunken log2 fold change” value was -0.026. As for RRIRCRPPRLPRPRPRPSMPPRP, the figure is -0.558; as for RRIRDRPPRLPRPRPRPPQDPRP, 0.811. The value for RRIRLRPPRLPRPRPRPLGYPRP was -1.79; that for RRIRDRPPRLPRPRPRPLLGPRP was 0.356. RRIRARPPRLPRPRPRPAPIPRP: the “shrunken log2 fold change” value stood at 0.448.

With RRIRWRPPRLPRPRPRPDDLPRP, the “shrunken log2 fold change” value was -0.024.

In the case of RRIRQRPPRLPRPRPRPYFMPRP, the “shrunken log2 fold change” value is -0.89. As for RRIRGRPPRLPRPRPRPSFNPRP, the figure is 0.131; as for RRIRRRPPRLPRPRPRPRNDPRP, 0.195; as for RRIRWRPPRLPRPRPRPQELPRP, -0.0075. The value for RRIRPRPPRLPRPRPRPREAPRP was 0.44; that for RRIRIRPPRLPRPRPRPDFKPRP was 3.01; that for RRIRMRPPRLPRPRPRPQAQPRP was 0.299. Turning to RRIRTRPPRLPRPRPRPATQPRP, the “shrunken log2 fold change” value stood at 1.54. Consider RRIRNRPPRLPRPRPRPTKEPRP, for which the “shrunken log2 fold change” value is -0.0307.

Consider RRIRGRPPRLPRPRPRPPNVPRP, for which the “shrunken log2 fold change” value came to 0.431. The value for RRIRQRPPRLPRPRPRPGPMPRP was 0.261. In the case of RRIRDRPPRLPRPRPRPQCQPRP, the “shrunken log2 fold change” value was -0.00822. In the case of RRIRMRPPRLPRPRPRPKPFPRP, the “shrunken log2 fold change” value is 0.236. RRIRQRPPRLPRPRPRPTQEPRP: the “shrunken log2 fold change” value worked out at 0.124.
